In assay [1] the target is Tumor necrosis factor alpha (UniProt P01375).
For assay [2] the target is unchanged. This is another data set of the same source.

Sequence of UniProt P01375 (P01375 whole entry): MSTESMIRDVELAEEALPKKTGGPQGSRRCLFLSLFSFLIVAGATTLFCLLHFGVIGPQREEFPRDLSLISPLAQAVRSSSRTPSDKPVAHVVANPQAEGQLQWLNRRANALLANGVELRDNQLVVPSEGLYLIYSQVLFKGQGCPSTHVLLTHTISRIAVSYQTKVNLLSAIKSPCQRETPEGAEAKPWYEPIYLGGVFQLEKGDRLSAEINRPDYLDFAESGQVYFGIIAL

In assay [1], “GP2015 late eluting HIC fraction (etanercept enriched in incorrectly disulfide-bridged variants) (Fc fusion)” gave a % Potency (redox: after serum-like redox conditions that reshuffle the incorrect bridges), NFκB-luciferase reporter gene assay; GP2015 late eluting HIC fraction, 2.0% C78-C88 of 93% and a % Potency (untreated), relative to reference standard, NFκB-luciferase reporter gene assay; GP2015 late eluting HIC fraction, 5.5% C78-C88 of 58%.

Take “Etanercept reference product Enbrel (Fc fusion)”: in assay [1], the % Potency (redox: after serum-like redox conditions), NFκB-luciferase reporter gene assay; Enbrel (1034018), 1.8% C78-C88 was found to be 96%; the % Potency (redox: after serum-like redox conditions), NFκB-luciferase reporter gene assay; Enbrel (1034842), 1.8% C78-C88 was 95%; the % Potency (redox: after serum-like redox conditions), NFκB-luciferase reporter gene assay; Enbrel (1040542), 1.7% C78-C88 was 107%; the % Potency (redox: after serum-like redox conditions), NFκB-luciferase reporter gene assay; Enbrel (1062728), 1.8% C78-C88 amounted to 98%. In assay [1], this substance had a % Potency (redox: after serum-like redox conditions), NFκB-luciferase reporter gene assay; Enbrel (J13793), 1.6% C78-C88 of 100%; a % Potency (untreated), relative to reference standard, NFκB-luciferase reporter gene assay; Enbrel (1034018), 2.8% C78-C88 of 81%; a % Potency (untreated), relative to reference standard, NFκB-luciferase reporter gene assay; Enbrel (1034842), 2.5% C78-C88 of 85%; a % Potency (untreated), relative to reference standard, NFκB-luciferase reporter gene assay; Enbrel (1040542), 2.6% C78-C88 of 89%. For the same substance, in assay [1], the % Potency (untreated), relative to reference standard, NFκB-luciferase reporter gene assay; Enbrel (1062728), 2.5% C78-C88 stood at 85% and the % Potency (untreated), relative to reference standard, NFκB-luciferase reporter gene assay; Enbrel (J13793), 2.3% C78-C88 amounted to 92%.

In assay [1], “Etanercept biosimilar GP2015 (Erelzi) (Fc fusion)” came in with a % Potency (redox: after serum-like redox conditions), NFκB-luciferase reporter gene assay; GP2015 DP (30986553), 1.5% C78-C88 of 103%; a % Potency (redox: after serum-like redox conditions), NFκB-luciferase reporter gene assay; GP2015 DP (30986557), 1.3% C78-C88 of 101%; a % Potency (redox: after serum-like redox conditions), NFκB-luciferase reporter gene assay; GP2015 DP (31161503), 1.7% C78-C88 of 98%; a % Potency (redox: after serum-like redox conditions), NFκB-luciferase reporter gene assay; GP2015 DS (B280815), 1.2% C78-C88 of 103%. In assay [1], this substance came in with a % Potency (redox: after serum-like redox conditions), NFκB-luciferase reporter gene assay; GP2015 process intermediate (CAP.E), 1.6% C78-C88 of 98%; a % Potency (untreated), relative to reference standard, NFκB-luciferase reporter gene assay; GP2015 DP (30986553), 1.2% C78-C88 of 98%; a % Potency (untreated), relative to reference standard, NFκB-luciferase reporter gene assay; GP2015 DP (30986557), 1.8% C78-C88 of 97%; a % Potency (untreated), relative to reference standard, NFκB-luciferase reporter gene assay; GP2015 DP (31161503), 1.2% C78-C88 of 100%. In assay [1], this substance yielded a % Potency (untreated), relative to reference standard, NFκB-luciferase reporter gene assay; GP2015 DS (B280815), 1.0% C78-C88 of 99% and a % Potency (untreated), relative to reference standard, NFκB-luciferase reporter gene assay; GP2015 process intermediate (CAP.E), 3.4% C78-C88 of 76%. The potency (TNFα inhibition NFκB-luciferase reporter gene assay in HEK293 cells); main peak of large scale HIC separation of GP2015 in assay [2] is 100%.

For the origin of these results see paper PMC5479810.
